According to patent US20250043302A1, “MUTATED HYDROXYPHENYLPYRUVATE DIOXYGENASE POLYPEPTIDE, AND CODING GENE AND USE THEREOF” (BEIJING DABEINONG BIOTECHNOLOGY CO., LTD., priority 2021, published 2025):
Positions count from the first letter of the chain named. Numbers in names are those of the source.

What was measured:
Type in all cases: in vivo
[1] = tested on: Arabidopsis thaliana T1 plants; test: Mesotrione tolerance of transgenic Arabidopsis thaliana T1 plants (spray, bleached leaf area grade, damage score); set-up: Scores: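 damage score 0-100 computed as Σ(N×S)/(T×M)×100 over grades 0-3 with higher meaning more damage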; settings: Arabidopsis thaliana T1 plants; for Grade 0 (classification and statistics of the grade of pesticide damage; number of plants) / Grade 1 (classification and statistics of the grade of pesticide damage; number of plants) / Grade 2 (classification and statistics of the grade of pesticide damage; number of plants) / Grade 3 (classification and statistics of the grade of pesticide damage; number of plants): 16 plants
How it was run: (§1)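 Damage was assessed by bleaching grade (0 none; 1 <50%; 2 >50%; 3 100% of leaf area) one week after spraying. Sprays on 18-day-old T1 and wild-type plants used field-rate multiples: topramezone 25–200, isoxaflutole 35–280, mesotrione 52.5–420 g ai/ha.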

[2] = tested on: Arabidopsis thaliana T1 plants; test: Topramezone tolerance of transgenic Arabidopsis thaliana T1 plants (spray, bleached leaf area grade, damage score); settings: 7 DAT, Table 4; for Classification and statistics of the grade of pesticide damage: Grade 0 / Classification and statistics of the grade of pesticide damage: Grade 1 / Classification and statistics of the grade of pesticide damage: Grade 2 / Classification and statistics of the grade of pesticide damage: Grade 3: number of plants; for Scores: pesticide damage score 0-100
How it was run: as §1

[3] = tested on: Arabidopsis thaliana T1 plants; test: Isoxaflutole tolerance of transgenic Arabidopsis thaliana T1 plants (spray, bleached leaf area grade, damage score); set-up: Scores (pesticide damage): scale not given here; settings: spray, Arabidopsis thaliana T1 plants; for Classification and statistics of the grade of pesticide damage: Grade 0 (number of plants) / Classification and statistics of the grade of pesticide damage: Grade 1 (number of plants) / Classification and statistics of the grade of pesticide damage: Grade 2 (number of plants) / Classification and statistics of the grade of pesticide damage: Grade 3 (number of plants): 16 plants
How it was run: as §1

[4] = isoxaflutole 35 g ai/ha (0.5x field concentration)
[5] = isoxaflutole 70 g ai/ha (1x field concentration)

B1: GsHPPD-02: nucleotide sequence encoding wild-type Gossypium hirsutum HPPD; vector DBN11738 (nucleic acid)
DNA: ATGGTTCAAACAAATCAATCTGGTTCTGGGAATGATTTCAAGCTGGTTGGTTTCTCAAATTTTGTGCGTAGCAATCCCAAATCAGACCGCTTCACGGTCAAGAGATTCCACCACATTGAATTTTGGTGCACTGATGCCACTAATGTGGCGAGGAGGTTTTCATGGGGTTTAGGGATGCAGTTCGTCGCCAAGAGTGACCTCTCCACAGGAAATTTGACGCATGCAAGCTACCTGCTGCGGAGCCGCGACTTGAATTTCCTGTTTACAGCACCATATTCACCCAGTATTGCAGTTGCTCAAAACCTTTCGCCACAAAGCACTGCTTCCATACCTTCATTTGATCACTCGCTTTGTCGGTCCTTTGCTGCAACACATGGACTTGGCGTCAGAGCAATTGCCATCGAGGTGGACGACGCCGAAACTGCCTTCACCACGAGCGTGACACATGGCGCGCTCCCTTTTTGTCCACCAACACCACTAGGAGATGTGGCTACAATTGCTGAAGTTAAATTATATGGTGATGTTGTGCTCAGATATGTTTCTTACACCACAACCATCAACTCCGACCATGATTTTCTGCCTGGTTTTGAGAAGATTGAAGATACTCTATCGTATCCTTTGGATTATGGCCTGCGTCGGCTCGATCATGCTGTTGGCAACGTACCTGAATTAGGTCCTGCTGTATCTTATGTGAAATCTTTTACTGGGTTCCATGAGTTTGCAGAGTTCACCGCTGAGGATGTAGGAACAAGTGAATCTGGGCTGAACTCAGTTGTTTTGGCCAACAATGAGGAAATGGTCCTCTTACCAATGAACGAGCCGGTGTTCGGCACTAAGCGCAAATCTCAAATACAGACCTACTTGGAGCACAATGAAGGAGCTGGTGTGCAGCACCTCGCCCTCGTCTCGGAGGACATCTTCAAAACTTTAAGGGAGATGAGGAAACGATCCTTTGTGGGAGGATTTGAATTCATGCCTTCTCCGCCGCCGACATACTACAAGAAGCTCAAGCAGCGCGCGGGGGACATTTTGTCTGATGAGCAGATCAAGGAGTGTGAAGAGCTTGGGATTCTTGTTGATAGAGATGATCAAGGAACGCTTCTGCAGATATTTACCAAGCCCGTCGGCGACCGGCCTACTATATTCATTGAGATCATCCAGAGAATTGGTTGCATGGTGAAGGATGAAGAAGGGAAACAGTACCAGAAGGGCGGCTGCGGCGGGTTTGGAAAAGGAAACTTCAGTGAGCTGTTTAAAAGTATAGAGGAGTATGAAAAGAGCTTGGAAGCAAAACAATCACAAAATCCATGA
modifications: GsHPPD-02 Nucleotide Sequence
notes: vector DBN11738
Resistance evaluation ([1]; mesotrione 52.5 g ai/ha): Non-resistant | Scores ([1]; mesotrione 52.5 g ai/ha): 100 | Grade 0 (classification and statistics of the grade of pesticide damage; number of plants) ([1]; mesotrione 52.5 g ai/ha): 0 | Grade 1 (classification and statistics of the grade of pesticide damage; number of plants) ([1]; mesotrione 52.5 g ai/ha): 0 | Grade 2 (classification and statistics of the grade of pesticide damage; number of plants) ([1]; mesotrione 52.5 g ai/ha): 0 | Grade 3 (classification and statistics of the grade of pesticide damage; number of plants) ([1]; mesotrione 52.5 g ai/ha): 16 | Resistance evaluation ([1]; mesotrione 105 g ai/ha): Non-resistant | Scores ([1]; mesotrione 105 g ai/ha): 100 | Grade 0 (classification and statistics of the grade of pesticide damage; number of plants) ([1]; mesotrione 105 g ai/ha): 0 | Grade 1 (classification and statistics of the grade of pesticide damage; number of plants) ([1]; mesotrione 105 g ai/ha): 0 | Grade 2 (classification and statistics of the grade of pesticide damage; number of plants) ([1]; mesotrione 105 g ai/ha): 0 | Grade 3 (classification and statistics of the grade of pesticide damage; number of plants) ([1]; mesotrione 105 g ai/ha): 16 | Classification and statistics of the grade of pesticide damage: Grade 0 ([2]; topramezone 25 g ai/ha (1×)): 0 | Classification and statistics of the grade of pesticide damage: Grade 1 ([2]; topramezone 25 g ai/ha (1×)): 0 | Classification and statistics of the grade of pesticide damage: Grade 2 ([2]; topramezone 25 g ai/ha (1×)): 0 | Classification and statistics of the grade of pesticide damage: Grade 3 ([2]; topramezone 25 g ai/ha (1×)): 16 | Classification and statistics of the grade of pesticide damage: Grade 0 ([2]; topramezone 100 g ai/ha (4×)): 0 | Classification and statistics of the grade of pesticide damage: Grade 1 ([2]; topramezone 100 g ai/ha (4×)): 0 | Classification and statistics of the grade of pesticide damage: Grade 2 ([2]; topramezone 100 g ai/ha (4×)): 0 | Classification and statistics of the grade of pesticide damage: Grade 3 ([2]; topramezone 100 g ai/ha (4×)): 16 | Scores ([2]; topramezone 25 g ai/ha (1×)): 100 | Scores ([2]; topramezone 100 g ai/ha (4×)): 100 | Resistance evaluation ([2]; topramezone 25 g ai/ha (1×)): non-resistant (non-resistant plants (scores 68-100)) | Resistance evaluation ([2]; topramezone 100 g ai/ha (4×)): non-resistant (non-resistant plants (scores 68-100)) | Resistance evaluation [3, 4]: Non-resistant | Scores (pesticide damage) [3, 4]: 100 | Classification and statistics of the grade of pesticide damage: Grade 0 (number of plants) [3, 4]: 0 | Classification and statistics of the grade of pesticide damage: Grade 1 (number of plants) [3, 4]: 0 | Classification and statistics of the grade of pesticide damage: Grade 2 (number of plants) [3, 4]: 0 | Classification and statistics of the grade of pesticide damage: Grade 3 (number of plants) [3, 4]: 16 | Resistance evaluation [3, 5]: Non-resistant | Scores (pesticide damage) [3, 5]: 100 | Classification and statistics of the grade of pesticide damage: Grade 0 (number of plants) [3, 5]: 0 | Classification and statistics of the grade of pesticide damage: Grade 1 (number of plants) [3, 5]: 0 | Classification and statistics of the grade of pesticide damage: Grade 2 (number of plants) [3, 5]: 0 | Classification and statistics of the grade of pesticide damage: Grade 3 (number of plants) [3, 5]: 16

B2: GsHPPDm-F372A-F383W-02: nucleotide sequence encoding Gossypium hirsutum HPPD with F372A+F383W; vector DBN11741 (nucleic acid)
DNA: B1 DNA with T1111G, T1112C, T1113C, T1145G, C1146G
modifications: GsHPPDm-F372A-F383W-02 Nucleotide Sequence
notes: vector DBN11741
Resistance evaluation ([1]; mesotrione 52.5 g ai/ha): Moderately | Scores ([1]; mesotrione 52.5 g ai/ha): 33 | Grade 0 (classification and statistics of the grade of pesticide damage; number of plants) ([1]; mesotrione 52.5 g ai/ha): 3 | Grade 1 (classification and statistics of the grade of pesticide damage; number of plants) ([1]; mesotrione 52.5 g ai/ha): 10 | Grade 2 (classification and statistics of the grade of pesticide damage; number of plants) ([1]; mesotrione 52.5 g ai/ha): 3 | Grade 3 (classification and statistics of the grade of pesticide damage; number of plants) ([1]; mesotrione 52.5 g ai/ha): 0 | Resistance evaluation ([1]; mesotrione 105 g ai/ha): Non-resistant | Scores ([1]; mesotrione 105 g ai/ha): 77 | Grade 0 (classification and statistics of the grade of pesticide damage; number of plants) ([1]; mesotrione 105 g ai/ha): 0 | Grade 1 (classification and statistics of the grade of pesticide damage; number of plants) ([1]; mesotrione 105 g ai/ha): 0 | Grade 2 (classification and statistics of the grade of pesticide damage; number of plants) ([1]; mesotrione 105 g ai/ha): 11 | Grade 3 (classification and statistics of the grade of pesticide damage; number of plants) ([1]; mesotrione 105 g ai/ha): 5 | Classification and statistics of the grade of pesticide damage: Grade 0 ([2]; topramezone 25 g ai/ha (1×)): 16 | Classification and statistics of the grade of pesticide damage: Grade 1 ([2]; topramezone 25 g ai/ha (1×)): 0 | Classification and statistics of the grade of pesticide damage: Grade 2 ([2]; topramezone 25 g ai/ha (1×)): 0 | Classification and statistics of the grade of pesticide damage: Grade 3 ([2]; topramezone 25 g ai/ha (1×)): 0 | Classification and statistics of the grade of pesticide damage: Grade 0 ([2]; topramezone 100 g ai/ha (4×)): 5 | Classification and statistics of the grade of pesticide damage: Grade 1 ([2]; topramezone 100 g ai/ha (4×)): 7 | Classification and statistics of the grade of pesticide damage: Grade 2 ([2]; topramezone 100 g ai/ha (4×)): 2 | Classification and statistics of the grade of pesticide damage: Grade 3 ([2]; topramezone 100 g ai/ha (4×)): 2 | Scores ([2]; topramezone 25 g ai/ha (1×)): 0 | Scores ([2]; topramezone 100 g ai/ha (4×)): 35 | Resistance evaluation ([2]; topramezone 25 g ai/ha (1×)): highly | Resistance evaluation ([2]; topramezone 100 g ai/ha (4×)): poorly | Resistance evaluation [3, 4]: Highly | Scores (pesticide damage) [3, 4]: 15 | Classification and statistics of the grade of pesticide damage: Grade 0 (number of plants) [3, 4]: 9 | Classification and statistics of the grade of pesticide damage: Grade 1 (number of plants) [3, 4]: 7 | Classification and statistics of the grade of pesticide damage: Grade 2 (number of plants) [3, 4]: 0 | Classification and statistics of the grade of pesticide damage: Grade 3 (number of plants) [3, 4]: 0 | Resistance evaluation [3, 5]: Poorly | Scores (pesticide damage) [3, 5]: 48 | Classification and statistics of the grade of pesticide damage: Grade 0 (number of plants) [3, 5]: 3 | Classification and statistics of the grade of pesticide damage: Grade 1 (number of plants) [3, 5]: 5 | Classification and statistics of the grade of pesticide damage: Grade 2 (number of plants) [3, 5]: 6 | Classification and statistics of the grade of pesticide damage: Grade 3 (number of plants) [3, 5]: 2
